What was measured:
[1] = biological target: Kappa opioid receptor (KOR) (Homo sapiens (Human)) (UniProt P41145); assay: cell-based or functional assay
[2] = biological target: Kappa opioid receptor (KOR) (Homo sapiens (Human)) (UniProt P41145); assay: HTRF Tag-Lite KOP ligand binding assay; competition against naltrindole (8 nM)
[3] = biological target: Kappa opioid receptor (KOR) (Homo sapiens (Human)) (UniProt P41145); assay: HTRF Tag-Lite KOP ligand binding assay; competition against naltrindole (8 nM); Ki relative to Kd of naltrindole
Mu opioid receptor (MOR) = assay: cell-based or functional assay
[4] = biological target: Delta opioid receptor (DOR); assay: cell-based or functional assay

Substance | KOPr desensitisation in HEK293-KOPr cells: reduction in maximal cAMP response after 6 h pretreatment at 1 µM [1] [%] | IC50 [2] [µM] | Log IC50 [2] | Activity (EC50, nM), cAMP assay [1] [nM] | Ki [3] [µM] | cAMP assay (ALPHAScreen), result at 1 µM peptide [1] | cAMP assay (ALPHAScreen), result at 10 µM peptide [1] | Activity (EC50, nM), cAMP assay (Mu opioid receptor (MOR)) [nM] | Activity (EC50, nM), cAMP assay [4] [nM]
SEQ ID NO. 20: NH2-Tyr-Sar-(4-Cl)Phe-Leu-Arg-DArg-Ile-Arg-NH2 (peptide) | 50 |  |  |  |  |  |  |  | 
SEQ ID NO. 24: NH2-Tyr-Sar-(4-Cl)Phe-Leu-Arg-DArg-C7H14-CONH2 (peptide) |  | 0.0726 | -7.14 | 3.87 | 0.0067 |  |  |  | 
SEQ ID NO. 4: NH2-Tyr-Sar-(4-NO2)Phe-Leu-Arg-DArg-NH2 (peptide) |  | 0.0302 | -7.52 | 8.4 | 0.0028 | 34.9 | 40.3 |  | 
SEQ ID NO. 18: NH2-Tyr-Sar-(4-NO2)Phe-Leu-Arg-NMA-NH2 (peptide) |  |  |  | 1.77 |  |  |  |  | 
Dyn1-7 (SEQ ID NO. 38: Tyr-Gly-Gly-Phe-Leu-Arg-Arg) (peptide) |  |  |  | 1600 |  |  |  | 3740 | 870
SEQ ID NO. 19: NH2-Tyr-Sar-(4-NO2)Phe-Leu-NMA-NMA-NH2 (peptide) |  | 1.95 | -5.71 | 31.1 | 0.18 |  |  |  | 

From patent US20240301023A1
